Data from patent US20200377613A1.

Target: survivin peptide coating antigen, not stated which (SEQ ID NO:4 or SEQ ID NO:27)
Assay: indirect ELISA; coating peptide not stated

B1: mAb 2C2E7 (antibody, IgG2b, V domains shown)
VH: QIQLVQSGPELKKPGETVKISCKASGYTFTTYGMSWVKQAPGRGLKWMGWINPYSGVPTYAVDFKGRFAFSLETSASTAYLQINNLKNEDTATYFCARGGRRGDFGYWGQGTTLTVSS
VL: QIGLTQSPAIMSASPGEKVTMTCSASSSISYMHWYQQKPGTSPKTWIYDTSKLASGVPARFSGSGSGTSYSLTISSMEAEDAATYYCHQRSSHHTFGGGTKLEIK
How did the titer (highest dilution with signal to blank ratio >2:1) (dilution (1:x)) turn out when B1 was run?
The titer (highest dilution with signal to blank ratio >2:1) (dilution (1:x)) was 512000.

B2: mAb 30H3D2 (antibody, IgG1, V domains shown)
VH: EVQLVESGGDLVKPGGSLKLSCAASGFTFSSYGMSWVRLTPDKRLEWVATISSGGSHTYYPDSVRGRFTISRDNAKNTLYLQMSSLKSEDTAMYYCARHPIYYYISSYAMDYWGQGTSVTVSS
VL: DVVMTQTPLSLPVSLGDQASISCRSSQSLVHSTGNTYLHWYLQKPGQSPKLLIYKVSNRFSGVPDRFGGSGSGTDFTLKISRVEAEDLGVYFCSQSTHVPPTFGGGTKLEIK
Which titer (highest dilution with signal to blank ratio >2:1) (dilution (1:x)) does the source give for B2 here?
Its titer (highest dilution with signal to blank ratio >2:1) (dilution (1:x)) is 512000.
